According to patent US20170022269A1:

Legend:
Aβ(1-42) fibrils (human) [1] = biological target: Aβ(1-42) fibrils (human) (UniProt P05067); test: dot blot densitometry, antibody 0.2 µg/ml; column Aβ(1-42) fibril
Aβ(1-40) monomer (human) = test: dot blot densitometry, antibody 0.2 µg/ml; column Aβ(1-40) monomer, 0.1% NaOH
Aβ(1-42) fibrils (human) [2] = biological target: Aβ(1-42) fibrils (human) (UniProt P05067); test: co-pelleting with Aβ(1-42) fibrils, SDS-PAGE, optical density of the heavy chain in pellet / (pellet + supernatant)

Aβ(1-42) fibrils (human), sequence (P05067 672-713): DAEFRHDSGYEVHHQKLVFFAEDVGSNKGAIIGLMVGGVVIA
Aβ(1-40) monomer (human), sequence (peptide, as listed by the source): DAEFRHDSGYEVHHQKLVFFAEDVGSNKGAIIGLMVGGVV

relation between recognition of Aβ(20-42) globulomer and the respective Aβ form (Aβ(1-42) fibrils (human) [1]): > 10000
relation between recognition of Aβ(20-42) globulomer and the respective Aβ form (Aβ(1-40) monomer (human)): > 10000
antibody bound to fibrils [%] (Aβ(1-42) fibrils (human) [2]): 5%
B1: monoclonal antibody 3B10 (antibody, part only; not given: light chain, V domains shown, part only)
VH: QVQLQQSGPELVKPGASVKMSCKASGYTFTDYVIHWVKQKPGQGLEWIGYINPYNDGTQYNEKFKGKATLTSDKSSSTVYMELSSLTSEDSTVYYCTVEGGTWDGYFDVWGTGTTVTVSS
